Measurements: PMC8486843, “SPOP mutation induces replication over-firing by impairing Geminin ubiquitination and triggers replication catastrophe upon ATR inhibition” (Nature Communications, 2021)

Key:
[1] = target: T1, SPOP MATH (D140G mutant) (human, UniProt O43791 28-166, D140G); assay: crystal structure; 1.1 mM SPOP MATH D140G with 5.5 mM Geminin peptide; sitting drop, 22 °C; 3.4 Å; conditions: both partners purified
T1 construct: SPOP, human, MATH domain, residues 28-166, D140G; Purified 'using the same protocol' as the 15N-labeled MATH domain 28-166; also called SPOP-MATH domain (D140G mutant)
T1 sequence (O43791 28-166 D140G): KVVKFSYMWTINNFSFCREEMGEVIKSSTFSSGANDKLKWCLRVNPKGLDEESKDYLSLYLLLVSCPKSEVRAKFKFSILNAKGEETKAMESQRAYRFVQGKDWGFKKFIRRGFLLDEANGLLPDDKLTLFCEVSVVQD

[2] = target: T2, 15N-labeled SPOP MATH domain (amino acids 28-166) (human, UniProt O43791 28-166, 15N-labeled); assay: NMR titration; 1H-15N HSQC of 0.2 mM 15N-labeled SPOP MATH titrated with up to 3-fold molar excess of unlabeled peptide; 298 K; phosphate buffer, 50 mM NaCl, 5 mM DTT, pH 6.0; conditions: both partners purified
T2 construct: SPOP, human, MATH domain, residues 28-166; Hexahistidine tag cleaved with PreScission protease
T2 sequence (O43791 28-166): as the sequence (O43791 28-166 D140G) above, with G113D counted along it

binding result [1]: binds
binding result [2]: binds
B1: Geminin WT SBC-containing peptide (amino acids 195-209) (peptide)
peptide: AEGTVSSSTDAKPCI
notes: Geminin, human, residues 195-209; also called Geminin peptide; Geminin wild-type SBC peptide; source: synthetic peptide
